In the supplement of paper PMC10567573:
± gives the standard deviation.

Experiment: protein stability index of a GFP-peptide fusion (GPS, HEK-293T) (PSI 1-6); higher = more stable
[1] = treatment: DMSO, c terminus: a fixed tail appended
[2] = treatment: MLN4924 1 uM, 8 h, c terminus: a fixed tail appended
[3] = treatment: DMSO, c terminus: native
[4] = treatment: MLN4924 1 uM, 8 h, c terminus: native
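Further: 24-mer peptide tiles fused after GFP, lentivirally expressed, FACS-sorted into six equal bins by GFP/DsRed ratio, decoded by Illumina sequencing, PSI is the read-weighted mean bin number.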

| Sequence | protein stability index [1] | protein stability index [2] | protein stability index [3] | protein stability index [4] |
| --- | --- | --- | --- | --- |
| FTKANFWYQPSFHGVDLSALRGAA [CARM1] | 2.38 ± 0.83 | 1.92 ± 0.3 |  |  |
| LPEQVDIIISEPMGYMLFNERMLE [CARM1] | 2.24 ± 0.69 | 2.12 ± 0.42 |  |  |
| NGADVNIQSKDGKSPLHMTAVHGR [ANKRD44] | 4.44 ± 0.22 | 4.46 ± 0.11 |  |  |
| PALEEAPDSHQKRPQHSHSNKKRP [ELOA2] | 5.52 ± 0.25 | 5.33 ± 0.46 |  |  |
| QQDLERSLQDASRGDPAHAGLAEL [PBXIP1] | 5.32 ± 0.18 | 5.38 ± 0.16 |  |  |
| DTTRVENLIKSENYGKILVEKNEH [R3HDM1] | 4.46 ± 0.089 | 4.4 ± 0.1 |  |  |
| WGFRLVGGRDFSAPLTISRVHAGS [PDLIM4] | 2.02 ± 0.24 | 2.17 ± 0.32 |  |  |
| GLASWPLARGIHVAGILSLLLGTA [POMT2] | 2.52 ± 0.52 | 2.18 ± 0.49 |  |  |
| PSDAPHAHHPLHPHLMQEHMGTNV [HNF4A] | 4.45 ± 0.24 | 4.5 ± 0.1 |  |  |
| KAAALPPFPLGASAQNGLASSLPA [PLAGL1] | 3.75 ± 0.21 | 3.82 ± 0.21 |  |  |
| SSREDSLEAGLPLQVRGYPEEKKE [CHGA] | 5.49 ± 0.21 | 5.5 ± 0.3 |  |  |
| VAGEFSEPVTLETPAFMFRLDAST [FSD1] | 3.1 ± 0.27 | 3.16 ± 0.19 |  |  |
| DMSIGGNLSKTQNMERFGEDNLED [CDC14A] | 5.27 ± 0.14 | 5.34 ± 0.21 |  |  |
| RDKNWQTPLHVAAANKAVKCAEVI [ANKRD44] | 3.69 ± 0.38 | 3.7 ± 0.19 |  |  |
| ATEPATCFPSTQKPTEPSVPVQPL [FBF1] | 4.9 ± 0.099 | 4.96 ± 0.1 |  |  |
| HPSENIIAVAATNNLYIFQDKVN [PPP2R2B] |  |  | 2.44 ± 0.22 | 2.64 ± 0.21 |
| LQQLRARLQGLEADCVRGPDGVCL [PBXIP1] | 2.7 ± 0.29 | 3.01 ± 0.35 |  |  |
| DEKYSIEPSWECKFDHIEVRDGPF [NETO1] | 3.78 ± 0.35 | 3.9 ± 0.17 |  |  |
| SAIYKWITDNFCYFRHADPTWQNS [FOXJ1] |  | 2.57 ± 0.4 |  |  |
| GAFLRTCLLSSNSRSLLTGGYNLA [TLE6] | 2.72 ± 0.32 | 2.79 ± 1.1 |  |  |
| SNWYITFQSDTDAQQAFILKRRS [LARP4] |  |  | 2.93 ± 0.3 | 2.21 ± 0.41 |
| EEFIATIRAAKGLDQALKEGGKLP [ZC2HC1A] | 3.98 ± 0.22 | 3.93 ± 0.16 |  |  |

| Sequence | protein stability index [1] | protein stability index [2] | protein stability index [3] | protein stability index [4] |
| --- | --- | --- | --- | --- |
| HVIHIIDFGLAKEYIDPETKKHIP [CSNK1G1] | 1.99 ± 0.29 | 2.16 ± 0.087 |  |  |
| ARIYIRRTLRNFINDEMQAKGIPQ [PCMTD1] | 2.01 ± 0.33 | 2.15 ± 0.18 |  |  |
| KKTVHYYAELGQCSVFPATDAPEQ [PLK2] | 3.6 ± 0.27 | 3.64 ± 0.31 |  |  |
| MVHINRALKLIIRLFLVEDLVDSL [RTN3] | 2.88 ± 0.31 | 2.92 ± 0.53 |  |  |
| MNYMPGTASLIEDIDKKHLVLLRD [LSM1] | 3.15 ± 0.16 | 3.27 ± 0.32 |  |  |
| QALSNVPPLRNYFLEEDNYKNIKR [USP39] | 3.77 ± 0.28 | 4.18 ± 0.48 |  |  |
| IRLTQYIDGQGRPRTSQSEETRVW [CAMK2B] | 3.13 ± 0.3 | 3.16 ± 0.14 |  |  |
| PEKASELSQVELQAAPGALPVSSP [TRIM55] | 5.21 ± 0.38 | 5.49 ± 0.24 |  |  |
| SRPELLQPLNFVRFYLPLLIHQHE [GLT8D2] | 3.09 ± 0.33 | 3.14 ± 0.59 |  |  |
| SVPLDPMERPMSQADLELDYNPPR [CBY2] | 4.75 ± 0.6 | 4.98 ± 0.23 |  |  |
| MLTVMTKYQANITETQRLGLAMAL [FANCE] | 2.52 ± 0.43 | 2.48 ± 0.25 |  |  |
| MVPISKQPKEKIQAIIESCSRQFP [NOL4L] | 3.34 ± 0.11 | 3.38 ± 0.47 |  |  |
| GHMLQHHGNSGHPLVLSYIDLSAW [HDAC6] | 2.24 ± 0.33 | 1.85 ± 0.19 |  |  |
| QEMVQRPQPHRNRAGLDLPTIDTG [TRAF3IP2] | 4.5 ± 0.26 | 4.59 ± 0.19 |  |  |
| SLLPAQVAACAQTVVSLAAAGQPT [CEBPD] | 3.24 ± 0.9 | 2.9 ± 0.37 |  |  |
| DGKGKINKEYIKRLLMSQADKMTA [MYL5] | 2.97 ± 0.25 | 3.13 ± 0.33 |  |  |
| LGHAAAFSDDCDLPSAQDINRLVG [GLT8D2] | 4.23 ± 0.18 | 4.43 ± 0.24 |  |  |
| ESSTRLLLEKNASVNEVDFEGRTP [RIPK4] | 4.83 ± 0.79 |  |  |  |
| NMAGVTFRKFIPKCSKIVIDFDSI [DCTD] | 2.5 ± 0.39 | 1.95 ± 0.32 |  |  |
| QSMSEEEREKVTPLMVKGFRDAAE [SEPHS2] | 5.01 ± 0.27 | 4.88 ± 0.24 |  |  |
| CKICGRTFFPVALKKHGPICQKTA [ZC2HC1A] | 3.58 ± 0.063 | 3.92 ± 0.38 |  |  |
| RGKNKMAAQNCRKRKLDTILNLER [NFE2L1] | 3.57 ± 0.33 | 3.63 ± 0.24 |  |  |

| Sequence | protein stability index [1] | protein stability index [2] | protein stability index [3] | protein stability index [4] |
| --- | --- | --- | --- | --- |
| PFSFGTLSSWELEAWYEDLQEVLS [DDIT3] | 2.37 ± 0.54 | 2.78 ± 0.21 |  |  |
| QSAFLHLPLPEQIHKASATIIEPA [INTS4] | 3.45 ± 0.31 | 3.82 ± 0.1 |  |  |
| AGHRRPAGGIRESKESSKEKKLTV [C22orf31] | 5.05 ± 0.41 | 4.86 ± 0.38 |  |  |
| ALSGKYSREFFNRRGELRHITKLK [SRPK2] | 2.87 ± 0.15 | 3.28 ± 0.27 |  |  |
| WFSCQGPFDMDSCLSRHSINPYSN [DFFB] | 2.35 ± 0.24 | 2.2 ± 0.27 |  |  |
| NSQESRSDLEDMEEEEGTRSPTLE [SMG5] | 5.56 ± 0.16 | 5.44 ± 0.23 |  |  |
| QKVASNHSPFSSESRALSTSSNLG [TBX5] | 4.19 ± 0.17 | 4.29 ± 0.085 |  |  |
| EGAIAVHCKAGLGRTGTLIACYVM [CDC14A] | 3.02 ± 0.56 | 2.86 ± 0.51 |  |  |
| AIAWCLRNEGVSSVLLGASNADQL [KCNAB2] | 2.23 ± 0.27 | 2.1 ± 0.13 |  |  |
| VSTQRSQDHFHVFVGDLSPEITTE [TIA1] | 3.98 ± 0.29 | 3.92 ± 0.41 |  |  |
| NLRRHVPDLESGSESGADTISVNQ [DLC1] | 5.29 ± 0.27 | 5.25 ± 0.28 |  |  |
| AATDITGFGILGHSQNLAKQQRNE [SEPHS2] | 4.68 ± 0.38 | 4.57 ± 0.31 |  |  |
| FLFAKLFSHITSARKARKYEIPHF [PHTF1] | 3 ± 0.43 | 2.79 ± 0.62 |  |  |
| EPVAAGSGIPEVKCYLNGVKVPGI [CLCN6] | 3.19 ± 0.61 | 3.59 ± 0.34 |  |  |
| RELREVRRVPPRFSIPPTNHEIMP [PTPRD] | 3.74 ± 0.093 | 3.88 ± 0.14 |  |  |
| QVDVGDVNDNAPEVLLASLANPVL [PCDHGC5] | 4.07 ± 0.28 | 4.21 ± 0.31 |  |  |
| ERTSPGAIHYCASTSEESWTDSEV [SPDEF] | 5.25 ± 0.058 | 4.97 ± 0.18 |  |  |
| VLRREISELRTKVQEQQKQLQDQD [FBXO28] | 4.73 ± 0.17 | 4.66 ± 0.23 |  |  |
| QIKDFKEKIQQDADSVITVGRGEV [ACBD3] | 5.06 ± 0.18 | 5.06 ± 0.32 |  |  |
| SPDVLQMLKIHRSDPQLIVQLRFC [TRADD] | 2.73 ± 0.58 | 2.56 ± 0.6 |  |  |
| AASSAKMGLVETKLAIIPGGGGTQ [AUH] | 3.83 ± 0.66 | 4.61 ± 0.51 |  |  |
